In the supplement of paper PMC10567573:

B1: C1orf137 (parent)
chain: RQHHHQSSFPGSLPQETNLTLKVC

Variants of: B1
Test: protein stability index of a GFP-peptide fusion (GPS, HEK-293T) (PSI 1-6); higher = more stable
Details: c terminus: a fixed tail appended
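Also: lentivirally expressed fusions sorted by FACS into six bins by GFP to DsRed ratio, PSI derived from sequencing read proportions per bin multiplied by bin number.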

Q: For RQHHHQSSFPGSLPQEDNLTLKVC [T17D], which protein stability index is on record?
A: The protein stability index was 3.89.

Q: For RQHHHQSSFPGSLPQEVNLTLKVC [T17V], which protein stability index is on record?
A: The protein stability index was 2.17.

Q: Which protein stability index does the source give for RQHHHQSSFPGSLPQEINLTLKVC [T17I] here?
A: The protein stability index was 1.17.

Q: With RQHHHQSSFPGSLPQECNLTLKVC [T17C] as the variant, how does the protein stability index read?
A: The protein stability index was 2.46.

Q: For RQHHHQSSFPGSLPQEANLTLKVC [T17A], which protein stability index is on record?
A: The protein stability index was 2.87.

Q: For RQHHHQSSFPGSLPQEMNLTLKVC [T17M], which protein stability index is on record?
A: Its protein stability index is 2.44.

Q: With RQHHHQSSFPGSLPQERNLTLKVC [T17R] as the variant, how does the protein stability index read?
A: Its protein stability index is 3.28.

Q: With RQHHHQSSFPGSLPQEGNLTLKVC [T17G] as the variant, how does the protein stability index read?
A: The protein stability index was 3.28.

Q: For RQHHHQSSFPGSLPQEFNLTLKVC [T17F], which protein stability index is on record?
A: The protein stability index was 2.49.

Q: For RQHHHQSSFPGSLPQEKNLTLKVC [T17K], which protein stability index is on record?
A: The protein stability index was 3.54.

Q: With RQHHHQSSFPGSLPQEWNLTLKVC [T17W] as the variant, how does the protein stability index read?
A: Its protein stability index is 1.41.

Q: Which protein stability index does the source give for RQHHHQSSFPGSLPQEENLTLKVC [T17E] here?
A: The protein stability index was 3.95.

Q: For RQHHHQSSFPGSLPQELNLTLKVC [T17L], which protein stability index is on record?
A: The protein stability index was 1.57.

Q: With RQHHHQSSFPGSLPQENNLTLKVC [T17N] as the variant, how does the protein stability index read?
A: The protein stability index was 3.15.

Q: With RQHHHQSSFPGSLPQEYNLTLKVC [T17Y] as the variant, how does the protein stability index read?
A: Its protein stability index is 2.09.

Q: For RQHHHQSSFPGSLPQESNLTLKVC [T17S], which protein stability index is on record?
A: Its protein stability index is 3.02.

Q: With RQHHHQSSFPGSLPQEQNLTLKVC [T17Q] as the variant, how does the protein stability index read?
A: Its protein stability index is 3.24.

Q: Which protein stability index does the source give for RQHHHQSSFPGSLPQEPNLTLKVC [T17P] here?
A: The protein stability index was 2.98.

Q: Which protein stability index does the source give for RQHHHQSSFPGSLPQEHNLTLKVC [T17H] here?
A: Its protein stability index is 2.39.

Q: Which protein stability index does the source give for RQHHHQSSFPGSCPQETNLTLKVC [L13C] here?
A: Its protein stability index is 2.79.

Q: Which protein stability index does the source give for RQHHHQSSFPGSPPQETNLTLKVC [L13P] here?
A: Its protein stability index is 3.42.

Q: Which protein stability index does the source give for RQHHHQSSFPGSEPQETNLTLKVC [L13E] here?
A: The protein stability index was 3.23.

Q: With RQHHHQSSFPGSTPQETNLTLKVC [L13T] as the variant, how does the protein stability index read?
A: The protein stability index was 3.51.

Q: With RQHHHQSSFPGSVPQETNLTLKVC [L13V] as the variant, how does the protein stability index read?
A: Its protein stability index is 3.65.

Q: For RQHHHQSSFPGSKPQETNLTLKVC [L13K], which protein stability index is on record?
A: Its protein stability index is 3.16.

Q: With RQHHHQSSFPGSYPQETNLTLKVC [L13Y] as the variant, how does the protein stability index read?
A: Its protein stability index is 2.66.

Q: For RQHHHQSSFPGSNPQETNLTLKVC [L13N], which protein stability index is on record?
A: The protein stability index was 3.71.

Q: For RQHHHQSSFPGSGPQETNLTLKVC [L13G], which protein stability index is on record?
A: The protein stability index was 2.98.

Q: With RQHHHQSSFPGSMPQETNLTLKVC [L13M] as the variant, how does the protein stability index read?
A: The protein stability index was 3.29.

Q: With RQHHHQSSFPGSQPQETNLTLKVC [L13Q] as the variant, how does the protein stability index read?
A: Its protein stability index is 2.89.

Q: For RQHHHQSSFPGSHPQETNLTLKVC [L13H], which protein stability index is on record?
A: The protein stability index was 3.21.

Q: With RQHHHQSSFPGSRPQETNLTLKVC [L13R] as the variant, how does the protein stability index read?
A: Its protein stability index is 2.97.

Q: Which protein stability index does the source give for RQHHHQSSFPGSWPQETNLTLKVC [L13W] here?
A: The protein stability index was 3.13.

Q: With RQHHHQSSFPGSSPQETNLTLKVC [L13S] as the variant, how does the protein stability index read?
A: Its protein stability index is 3.57.

Q: For RQHHHQSSFPGSDPQETNLTLKVC [L13D], which protein stability index is on record?
A: Its protein stability index is 4.

Q: With RQHHHQSSFPGSFPQETNLTLKVC [L13F] as the variant, how does the protein stability index read?
A: The protein stability index was 2.78.

Q: With RQHHHQSSFPGSIPQETNLTLKVC [L13I] as the variant, how does the protein stability index read?
A: Its protein stability index is 3.2.

Q: For RQHHHQSSFPGSAPQETNLTLKVC [L13A], which protein stability index is on record?
A: Its protein stability index is 2.72.

Q: With RQHHHQSSFNGSLPQETNLTLKVC [P10N] as the variant, how does the protein stability index read?
A: Its protein stability index is 2.69.

Q: With RQHHHQSSFKGSLPQETNLTLKVC [P10K] as the variant, how does the protein stability index read?
A: Its protein stability index is 3.44.

Q: For RQHHHQSSFDGSLPQETNLTLKVC [P10D], which protein stability index is on record?
A: Its protein stability index is 2.99.

Q: For RQHHHQSSFFGSLPQETNLTLKVC [P10F], which protein stability index is on record?
A: The protein stability index was 2.27.

Q: For RQHHHQSSFSGSLPQETNLTLKVC [P10S], which protein stability index is on record?
A: Its protein stability index is 3.46.

Q: With RQHHHQSSFMGSLPQETNLTLKVC [P10M] as the variant, how does the protein stability index read?
A: The protein stability index was 2.19.

Q: With RQHHHQSSFEGSLPQETNLTLKVC [P10E] as the variant, how does the protein stability index read?
A: The protein stability index was 2.6.

Q: Which protein stability index does the source give for RQHHHQSSFIGSLPQETNLTLKVC [P10I] here?
A: Its protein stability index is 2.56.

Q: Which protein stability index does the source give for RQHHHQSSFRGSLPQETNLTLKVC [P10R] here?
A: The protein stability index was 3.75.

Q: Which protein stability index does the source give for RQHHHQSSFYGSLPQETNLTLKVC [P10Y] here?
A: Its protein stability index is 2.4.

Q: Which protein stability index does the source give for RQHHHQSSFHGSLPQETNLTLKVC [P10H] here?
A: Its protein stability index is 2.77.

Q: Which protein stability index does the source give for RQHHHQSSFTGSLPQETNLTLKVC [P10T] here?
A: The protein stability index was 3.25.

Q: Which protein stability index does the source give for RQHHHQSSFAGSLPQETNLTLKVC [P10A] here?
A: The protein stability index was 3.24.

Q: With RQHHHQSSFCGSLPQETNLTLKVC [P10C] as the variant, how does the protein stability index read?
A: Its protein stability index is 2.38.

Q: For RQHHHQSSFWGSLPQETNLTLKVC [P10W], which protein stability index is on record?
A: The protein stability index was 1.99.

Q: Which protein stability index does the source give for RQHHHQSSFLGSLPQETNLTLKVC [P10L] here?
A: Its protein stability index is 2.25.

Q: With RQHHHQSSFQGSLPQETNLTLKVC [P10Q] as the variant, how does the protein stability index read?
A: Its protein stability index is 3.06.

Q: Which protein stability index does the source give for RQHHHQSSFVGSLPQETNLTLKVC [P10V] here?
A: Its protein stability index is 2.65.

Q: With RQHHHQSSFPFSLPQETNLTLKVC [G11F] as the variant, how does the protein stability index read?
A: The protein stability index was 2.28.

Q: With RQHHHQSSFPTSLPQETNLTLKVC [G11T] as the variant, how does the protein stability index read?
A: Its protein stability index is 2.66.

Q: With RQHHHQSSFPCSLPQETNLTLKVC [G11C] as the variant, how does the protein stability index read?
A: Its protein stability index is 2.61.

Q: For RQHHHQSSFPSSLPQETNLTLKVC [G11S], which protein stability index is on record?
A: The protein stability index was 2.9.

Q: Which protein stability index does the source give for RQHHHQSSFPPSLPQETNLTLKVC [G11P] here?
A: The protein stability index was 2.53.

Q: For RQHHHQSSFPISLPQETNLTLKVC [G11I], which protein stability index is on record?
A: Its protein stability index is 2.85.

Q: For RQHHHQSSFPMSLPQETNLTLKVC [G11M], which protein stability index is on record?
A: The protein stability index was 3.24.

Q: For RQHHHQSSFPKSLPQETNLTLKVC [G11K], which protein stability index is on record?
A: The protein stability index was 3.79.

Q: For RQHHHQSSFPYSLPQETNLTLKVC [G11Y], which protein stability index is on record?
A: The protein stability index was 1.95.

Q: With RQHHHQSSFPNSLPQETNLTLKVC [G11N] as the variant, how does the protein stability index read?
A: Its protein stability index is 3.01.

Q: With RQHHHQSSFPRSLPQETNLTLKVC [G11R] as the variant, how does the protein stability index read?
A: The protein stability index was 2.44.

Q: For RQHHHQSSFPASLPQETNLTLKVC [G11A], which protein stability index is on record?
A: The protein stability index was 2.21.

Q: Which protein stability index does the source give for RQHHHQSSFPQSLPQETNLTLKVC [G11Q] here?
A: Its protein stability index is 3.07.

Q: Which protein stability index does the source give for RQHHHQSSFPHSLPQETNLTLKVC [G11H] here?
A: Its protein stability index is 2.98.

Q: With RQHHHQSSFPDSLPQETNLTLKVC [G11D] as the variant, how does the protein stability index read?
A: Its protein stability index is 2.25.

Q: For RQHHHQSSFPWSLPQETNLTLKVC [G11W], which protein stability index is on record?
A: Its protein stability index is 2.24.

Q: Which protein stability index does the source give for RQHHHQSSFPVSLPQETNLTLKVC [G11V] here?
A: The protein stability index was 2.98.

Q: With RQHHHQSSFPLSLPQETNLTLKVC [G11L] as the variant, how does the protein stability index read?
A: The protein stability index was 2.72.

Q: Which protein stability index does the source give for RQHHHQSSFPESLPQETNLTLKVC [G11E] here?
A: Its protein stability index is 4.03.

Q: For RQHHHQSSFPGSLPQFTNLTLKVC [E16F], which protein stability index is on record?
A: The protein stability index was 2.28.

Q: For RQHHHQSSFPGSLPQDTNLTLKVC [E16D], which protein stability index is on record?
A: Its protein stability index is 3.63.

Q: For RQHHHQSSFPGSLPQYTNLTLKVC [E16Y], which protein stability index is on record?
A: The protein stability index was 1.72.

Q: Which protein stability index does the source give for RQHHHQSSFPGSLPQWTNLTLKVC [E16W] here?
A: The protein stability index was 1.55.

Q: For RQHHHQSSFPGSLPQLTNLTLKVC [E16L], which protein stability index is on record?
A: The protein stability index was 1.7.

Q: For RQHHHQSSFPGSLPQNTNLTLKVC [E16N], which protein stability index is on record?
A: The protein stability index was 2.8.

Q: With RQHHHQSSFPGSLPQPTNLTLKVC [E16P] as the variant, how does the protein stability index read?
A: Its protein stability index is 2.99.

Q: For RQHHHQSSFPGSLPQKTNLTLKVC [E16K], which protein stability index is on record?
A: The protein stability index was 2.57.

Q: With RQHHHQSSFPGSLPQTTNLTLKVC [E16T] as the variant, how does the protein stability index read?
A: The protein stability index was 2.69.

Q: With RQHHHQSSFPGSLPQSTNLTLKVC [E16S] as the variant, how does the protein stability index read?
A: The protein stability index was 2.63.

Q: Which protein stability index does the source give for RQHHHQSSFPGSLPQGTNLTLKVC [E16G] here?
A: The protein stability index was 2.39.

Q: Which protein stability index does the source give for RQHHHQSSFPGSLPQITNLTLKVC [E16I] here?
A: Its protein stability index is 1.75.

Q: Which protein stability index does the source give for RQHHHQSSFPGSLPQRTNLTLKVC [E16R] here?
A: The protein stability index was 2.34.

Q: Which protein stability index does the source give for RQHHHQSSFPGSLPQVTNLTLKVC [E16V] here?
A: The protein stability index was 1.57.

Q: Which protein stability index does the source give for RQHHHQSSFPGSLPQMTNLTLKVC [E16M] here?
A: Its protein stability index is 2.48.

Q: With RQHHHQSSFPGSLPQHTNLTLKVC [E16H] as the variant, how does the protein stability index read?
A: The protein stability index was 2.87.

Q: Which protein stability index does the source give for RQHHHQSSFPGSLPQQTNLTLKVC [E16Q] here?
A: The protein stability index was 2.57.

Q: Which protein stability index does the source give for RQHHHQSSFPGSLPQCTNLTLKVC [E16C] here?
A: The protein stability index was 1.47.

Q: Which protein stability index does the source give for RQHHHQSSFPGSLPQATNLTLKVC [E16A] here?
A: The protein stability index was 2.33.
